Results from patent publication US20180155451A1 (published 2018).

What was measured:
[1] = biological target: T1, FcγRIIb (human, UniProt P31994 43-217); test: SPR (Biacore), antibody captured, FcγR as analyte; relative binding
T1 construct: extracellular domain; also called FcgRIIb; 2b
T1 sequence (looked up): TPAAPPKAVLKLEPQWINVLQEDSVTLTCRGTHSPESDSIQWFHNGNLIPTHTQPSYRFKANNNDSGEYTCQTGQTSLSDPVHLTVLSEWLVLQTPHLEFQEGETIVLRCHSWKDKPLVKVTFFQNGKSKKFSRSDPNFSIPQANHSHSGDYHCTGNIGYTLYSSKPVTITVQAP
Method: (§1) The heterodimerized antibodies He Abs in which one of the H chains was introduced with an alteration were assayed for their binding activities to each activating FcγR and inhibitory FcγR according to the method described in Example 4. […] The activating FcγRs in FIGS. 26, 27, 28, and 29 are FcγRIa, FcγRIIa (R), FcγRIIa (H), and FcγRIIIa, respectively.
(§2) Analysis of interaction between objective antibody and the FcγR was carried out using Biacore T100 (GE Healthcare). HBS-EP+ (GE Healthcare) was used as the running buffer, and the measurement temperature was set to 25° C. Chips produced by immobilizing the antigen peptide by the amine coupling method to a Series S Sencor Chip CM5 (GE Healthcare), or alternatively, chips produced by allowing preliminarily biotinylated antigen peptides to interact with and immobilize onto a Series S Sensor Chip SA (certified) (GE Healthcare) were used. Antibodies of interest were captured onto an antigen peptide-immobilized chip, and allowed to interact to each FcγR diluted with running buffer. To regenerate and repeatedly use the chip, the antibodies captured on the chip were washed off by reacting 10 mM glycine-HCl, pH 1.5.

[2] = biological target: T2, FcγRIIa R (human, UniProt P12318 34-217); test: as above
T2 construct: extracellular domain; also called FcgRIIa R type; 2aR
T2 sequence (looked up): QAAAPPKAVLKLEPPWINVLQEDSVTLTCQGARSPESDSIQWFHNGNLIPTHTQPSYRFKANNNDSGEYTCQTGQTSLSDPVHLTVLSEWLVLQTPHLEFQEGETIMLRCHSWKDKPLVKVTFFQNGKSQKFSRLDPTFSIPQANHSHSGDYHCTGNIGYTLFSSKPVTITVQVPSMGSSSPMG
Method: as §1, §2

[3] = biological target: T2, FcγRIIa R; test: SPR; He/Con_2aR divided by He/Con_2b (FcγRIIb as reference)
Method: as §1, §2

Row | Binder | He/Con_2b (IIb binding) [1] | He/Con_2aR (IIaR binding) [2] | IIaR/IIb (He_2aR/2b) [3]
1 | GpH7-A5/GpH7-B3 variant H268_06M/GpL16-k0 (antibody, human IgG1, kappa, heterodimerized antibody, mutation in the GpH7-B3 chain only; also called He Ab) heavy 1: not shown heavy 2: not shown light: DIVMTQSPLSLPVTPGEPASISCQASESLVHSNRNTYLHWYLQKPGQSPQLLIYKVSNRFSGVPDRFSGSGSGTDFTLKISRVEAEDVGVYYCSQNTHVPPTFGQGTKVEIERTVAAPSVFIFPPSDEQLKSGTASVVCLLNNFYPREAKVQWKVDNALQSGNSQESVTEQDSKDSTYSLSSTLTLSKADYEKHKVYACEVTHQGLSSPVTKSFNRGEC | 65.7 % of GpH7-A5/GpH7-B3/GpL16-k0 (=100) | 81 % of GpH7-A5/GpH7-B3/GpL16-k0 (=100) | 1.23 ratio
2 | GpH7-A5/GpH7-B3 variant Q295_12R/GpL16-k0 (antibody, human IgG1, kappa, heterodimerized antibody, mutation in the GpH7-B3 chain only; also called He Ab) heavy 1: not shown heavy 2: not shown light: DIVMTQSPLSLPVTPGEPASISCQASESLVHSNRNTYLHWYLQKPGQSPQLLIYKVSNRFSGVPDRFSGSGSGTDFTLKISRVEAEDVGVYYCSQNTHVPPTFGQGTKVEIERTVAAPSVFIFPPSDEQLKSGTASVVCLLNNFYPREAKVQWKVDNALQSGNSQESVTEQDSKDSTYSLSSTLTLSKADYEKHKVYACEVTHQGLSSPVTKSFNRGEC | 65.2 % of GpH7-A5/GpH7-B3/GpL16-k0 (=100) | 83 % of GpH7-A5/GpH7-B3/GpL16-k0 (=100) | 1.27 ratio
3 | GpH7-A5/GpH7-B3 variant P271_20W/GpL16-k0 (antibody, human IgG1, kappa, heterodimerized antibody, mutation in the GpH7-B3 chain only; also called He Ab) heavy 1: not shown heavy 2: not shown light: DIVMTQSPLSLPVTPGEPASISCQASESLVHSNRNTYLHWYLQKPGQSPQLLIYKVSNRFSGVPDRFSGSGSGTDFTLKISRVEAEDVGVYYCSQNTHVPPTFGQGTKVEIERTVAAPSVFIFPPSDEQLKSGTASVVCLLNNFYPREAKVQWKVDNALQSGNSQESVTEQDSKDSTYSLSSTLTLSKADYEKHKVYACEVTHQGLSSPVTKSFNRGEC | 58.1 % of GpH7-A5/GpH7-B3/GpL16-k0 (=100) | 77.3 % of GpH7-A5/GpH7-B3/GpL16-k0 (=100) | 1.33 ratio
4 | GpH7-A5/GpH7-B3 variant Q295_03V/GpL16-k0 (antibody, human IgG1, kappa, heterodimerized antibody, mutation in the GpH7-B3 chain only; also called He Ab) heavy 1: not shown heavy 2: not shown light: DIVMTQSPLSLPVTPGEPASISCQASESLVHSNRNTYLHWYLQKPGQSPQLLIYKVSNRFSGVPDRFSGSGSGTDFTLKISRVEAEDVGVYYCSQNTHVPPTFGQGTKVEIERTVAAPSVFIFPPSDEQLKSGTASVVCLLNNFYPREAKVQWKVDNALQSGNSQESVTEQDSKDSTYSLSSTLTLSKADYEKHKVYACEVTHQGLSSPVTKSFNRGEC | 75.7 % of GpH7-A5/GpH7-B3/GpL16-k0 (=100) | 91.2 % of GpH7-A5/GpH7-B3/GpL16-k0 (=100) | 1.2 ratio
5 | GpH7-A5/GpH7-B3 variant Q295_18N/GpL16-k0 (antibody, human IgG1, kappa, heterodimerized antibody, mutation in the GpH7-B3 chain only; also called He Ab) heavy 1: not shown heavy 2: not shown light: DIVMTQSPLSLPVTPGEPASISCQASESLVHSNRNTYLHWYLQKPGQSPQLLIYKVSNRFSGVPDRFSGSGSGTDFTLKISRVEAEDVGVYYCSQNTHVPPTFGQGTKVEIERTVAAPSVFIFPPSDEQLKSGTASVVCLLNNFYPREAKVQWKVDNALQSGNSQESVTEQDSKDSTYSLSSTLTLSKADYEKHKVYACEVTHQGLSSPVTKSFNRGEC | 64.9 % of GpH7-A5/GpH7-B3/GpL16-k0 (=100) | 82.4 % of GpH7-A5/GpH7-B3/GpL16-k0 (=100) | 1.27 ratio
6 | GpH7-A5/GpH7-B3 variant Q295_15Y/GpL16-k0 (antibody, human IgG1, kappa, heterodimerized antibody, mutation in the GpH7-B3 chain only; also called He Ab) heavy 1: not shown heavy 2: not shown light: DIVMTQSPLSLPVTPGEPASISCQASESLVHSNRNTYLHWYLQKPGQSPQLLIYKVSNRFSGVPDRFSGSGSGTDFTLKISRVEAEDVGVYYCSQNTHVPPTFGQGTKVEIERTVAAPSVFIFPPSDEQLKSGTASVVCLLNNFYPREAKVQWKVDNALQSGNSQESVTEQDSKDSTYSLSSTLTLSKADYEKHKVYACEVTHQGLSSPVTKSFNRGEC | 65.4 % of GpH7-A5/GpH7-B3/GpL16-k0 (=100) | 82.8 % of GpH7-A5/GpH7-B3/GpL16-k0 (=100) | 1.27 ratio
7 | GpH7-A5/GpH7-B3 variant Q295_05P/GpL16-k0 (antibody, human IgG1, kappa, heterodimerized antibody, mutation in the GpH7-B3 chain only; also called He Ab) heavy 1: not shown heavy 2: not shown light: DIVMTQSPLSLPVTPGEPASISCQASESLVHSNRNTYLHWYLQKPGQSPQLLIYKVSNRFSGVPDRFSGSGSGTDFTLKISRVEAEDVGVYYCSQNTHVPPTFGQGTKVEIERTVAAPSVFIFPPSDEQLKSGTASVVCLLNNFYPREAKVQWKVDNALQSGNSQESVTEQDSKDSTYSLSSTLTLSKADYEKHKVYACEVTHQGLSSPVTKSFNRGEC | 67.5 % of GpH7-A5/GpH7-B3/GpL16-k0 (=100) | 87.4 % of GpH7-A5/GpH7-B3/GpL16-k0 (=100) | 1.3 ratio
8 | GpH7-A5/GpH7-B3 variant H268_08L/GpL16-k0 (antibody, human IgG1, kappa, heterodimerized antibody, mutation in the GpH7-B3 chain only; also called He Ab) heavy 1: not shown heavy 2: not shown light: DIVMTQSPLSLPVTPGEPASISCQASESLVHSNRNTYLHWYLQKPGQSPQLLIYKVSNRFSGVPDRFSGSGSGTDFTLKISRVEAEDVGVYYCSQNTHVPPTFGQGTKVEIERTVAAPSVFIFPPSDEQLKSGTASVVCLLNNFYPREAKVQWKVDNALQSGNSQESVTEQDSKDSTYSLSSTLTLSKADYEKHKVYACEVTHQGLSSPVTKSFNRGEC | 67.8 % of GpH7-A5/GpH7-B3/GpL16-k0 (=100) | 85 % of GpH7-A5/GpH7-B3/GpL16-k0 (=100) | 1.25 ratio
